Source: patent US20250152746A1, “BASE EDITING OF ANGPTL3 AND METHODS OF USING SAME FOR TREATMENT OF DISEASE” (Verve Therapeutics, Inc., priority 2020, published 2025)
In the oligonucleotide strings, read from the 5' end, every base follows the letter of its sugar. An asterisk marks phosphorothioate; unmarked linkages are phosphodiester. Other units and linkages are bracketed, terminal groups are in braces. A string of capitals states the bases alone. m = 2'-O-methyl; r = 2'-OH (RNA)

Columns and labels:
[1] = test system: PCSK9 gene; experiment: PCSK9 gRNA/SpCas9 editing in primary cynomolgus hepatocytes (Tables 2, 22); format: cell-based, cynomolgus monkey; details: SpCas9 mRNA MS002 1:1 by weight; for Cyno Primary Hepatocyte Editing % 100: 100 ng/RNA/mL; for Cyno Primary Hepatocyte Editing % 500: 500 ng/RNA/mL; for Cyno Primary Hepatocyte Editing % 2500: 2500 ng/RNA/mL
[2] = test system: PCSK9 gene; experiment: PCSK9 gRNA/SpCas9 editing in primary human hepatocytes (Tables 2, 4); format: cell-based; details: SpCas9 mRNA MS002 1:1 by weight; for Human Primary Hepatocyte Editing % 100: 100 ng/RNA/mL; for Human Primary Hepatocyte Editing % 500: 500 ng/RNA/mL; for Human Primary Hepatocyte Editing % 2500: 2500 ng/RNA/mL
How it was run: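 Editing at the PCSK9 site quantified by NGS of PCR amplicons from genomic DNA. Input: SpCas9 mRNA with gRNA, 1:1 by weight, transfected into primary human hepatocytes at 2500, 500 or 100 ng RNA/mL (tracr-modified guides at 2500, 1250, 500, 250 ng/mL).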

B1: GA222: PCSK9 gRNA; protospacer TGGCAGGGGTGGTCAGCGGC (SEQ ID NO: 216) (nucleic acid)
guide: UGGCAGGGGUGGUCAGCGGCGUUUUAGAGCUAGAAAUAGCAAGUUAAAAUAAGGCUAGUCCGUUAUCAACUUGAAAAAGUGGCACCGAGUCGGUGCUUUU
modifications: sugars from the 5' end m3 r94 m3, linkages s3 o93 s3 (s phosphorothioate, o phosphodiester), T or U not given here
Cyno Primary Hepatocyte Editing % 100 [1]: 0.88%
Cyno Primary Hepatocyte Editing % 500 [1]: 3.32%
Cyno Primary Hepatocyte Editing % 2500 [1]: 16.7%
Human Primary Hepatocyte Editing % 100 [2]: 0.5%
Human Primary Hepatocyte Editing % 500 [2]: 0.66%
Human Primary Hepatocyte Editing % 2500 [2]: 2.04%

B2: GA160: PCSK9 gRNA; protospacer GCCTTGCGTTCCGAGGAGGA (SEQ ID NO: 154) (nucleic acid)
guide: GCCUUGCGUUCCGAGGAGGAGUUUUAGAGCUAGAAAUAGCAAGUUAAAAUAAGGCUAGUCCGUUAUCAACUUGAAAAAGUGGCACCGAGUCGGUGCUUUU
modifications: sugars from the 5' end m3 r94 m3, linkages s3 o93 s3 (s phosphorothioate, o phosphodiester), T or U not given here
Cyno Primary Hepatocyte Editing % 100 [1]: 1.38%
Cyno Primary Hepatocyte Editing % 500 [1]: 6.60%
Cyno Primary Hepatocyte Editing % 2500 [1]: 23.15%
Human Primary Hepatocyte Editing % 100 [2]: 1.19%
Human Primary Hepatocyte Editing % 500 [2]: 5.58%
Human Primary Hepatocyte Editing % 2500 [2]: 23.3%

B3: GA223: PCSK9 gRNA; protospacer GCTGACCACCCCTGCCAGGT (SEQ ID NO: 217) (nucleic acid)
guide: GCUGACCACCCCUGCCAGGUGUUUUAGAGCUAGAAAUAGCAAGUUAAAAUAAGGCUAGUCCGUUAUCAACUUGAAAAAGUGGCACCGAGUCGGUGCUUUU
modifications: sugars from the 5' end m3 r94 m3, linkages s3 o93 s3 (s phosphorothioate, o phosphodiester), T or U not given here
Cyno Primary Hepatocyte Editing % 100 [1]: 3.46%
Cyno Primary Hepatocyte Editing % 500 [1]: 21.4%
Cyno Primary Hepatocyte Editing % 2500 [1]: 57.58%
Human Primary Hepatocyte Editing % 100 [2]: 1.44%
Human Primary Hepatocyte Editing % 500 [2]: 7.28%
Human Primary Hepatocyte Editing % 2500 [2]: 17.5%

B4: GA224: PCSK9 gRNA; protospacer GGCCGCTGACCACCCCTGCC (SEQ ID NO: 218) (nucleic acid)
guide: GGCCGCUGACCACCCCUGCCGUUUUAGAGCUAGAAAUAGCAAGUUAAAAUAAGGCUAGUCCGUUAUCAACUUGAAAAAGUGGCACCGAGUCGGUGCUUUU
modifications: sugars from the 5' end m3 r94 m3, linkages s3 o93 s3 (s phosphorothioate, o phosphodiester), T or U not given here
Cyno Primary Hepatocyte Editing % 100 [1]: 2.61%
Cyno Primary Hepatocyte Editing % 500 [1]: 12.34%
Cyno Primary Hepatocyte Editing % 2500 [1]: 47.5%
Human Primary Hepatocyte Editing % 100 [2]: 1.01%
Human Primary Hepatocyte Editing % 500 [2]: 2.19%
Human Primary Hepatocyte Editing % 2500 [2]: 13.02%

B5: GA161: PCSK9 gRNA; protospacer GGACGAGGACGGCGACTACG (SEQ ID NO: 155) (nucleic acid)
guide: mG*mG*mA*rCrGrArGrGrArCrGrGrCrGrArCrUrArCrGrGrUrUrUrUrArGrArGrCrUrArGrArArArUrArGrCrArArGrUrUrArArArArUrArArGrGrCrUrArGrUrCrCrGrUrUrArUrCrArArCrUrUrGrArArArArArGrUrGrGrCrArCrCrGrArGrUrCrGrGrUrGrCrU*mU*mU*mU
Cyno Primary Hepatocyte Editing % 100 [1]: 4.52%
Cyno Primary Hepatocyte Editing % 500 [1]: 14.98%
Cyno Primary Hepatocyte Editing % 2500 [1]: 48.24%
Human Primary Hepatocyte Editing % 100 [2]: 3.65%
Human Primary Hepatocyte Editing % 500 [2]: 8.74%
Human Primary Hepatocyte Editing % 2500 [2]: 35.08%

B6: GA230: PCSK9 gRNA; protospacer AGTAGAGGCAGGCATCGTCC (SEQ ID NO: 224) (nucleic acid)
guide: AGUAGAGGCAGGCAUCGUCCGUUUUAGAGCUAGAAAUAGCAAGUUAAAAUAAGGCUAGUCCGUUAUCAACUUGAAAAAGUGGCACCGAGUCGGUGCUUUU
modifications: sugars from the 5' end m3 r94 m3, linkages s3 o93 s3 (s phosphorothioate, o phosphodiester), T or U not given here
Cyno Primary Hepatocyte Editing % 2500 [1]: 35.86%
Human Primary Hepatocyte Editing % 500 [2]: 12.83%
Human Primary Hepatocyte Editing % 2500 [2]: 29.31%

B7: GA225: PCSK9 gRNA; protospacer GGCATCGTCCCGGAAGTTGC (SEQ ID NO: 219) (nucleic acid)
guide: GGCAUCGUCCCGGAAGUUGCGUUUUAGAGCUAGAAAUAGCAAGUUAAAAUAAGGCUAGUCCGUUAUCAACUUGAAAAAGUGGCACCGAGUCGGUGCUUUU
modifications: sugars from the 5' end m3 r94 m3, linkages s3 o93 s3 (s phosphorothioate, o phosphodiester), T or U not given here
Cyno Primary Hepatocyte Editing % 100 [1]: 2.03%
Cyno Primary Hepatocyte Editing % 500 [1]: 3.11%
Cyno Primary Hepatocyte Editing % 2500 [1]: 8.57%
Human Primary Hepatocyte Editing % 100 [2]: 0.89%
Human Primary Hepatocyte Editing % 500 [2]: 6.39%
Human Primary Hepatocyte Editing % 2500 [2]: 18.82%

B8: GA229: PCSK9 gRNA; protospacer GTCGTGCTGGTCACCGCTGC (SEQ ID NO: 223) (nucleic acid)
guide: GUCGUGCUGGUCACCGCUGCGUUUUAGAGCUAGAAAUAGCAAGUUAAAAUAAGGCUAGUCCGUUAUCAACUUGAAAAAGUGGCACCGAGUCGGUGCUUUU
modifications: sugars from the 5' end m3 r94 m3, linkages s3 o93 s3 (s phosphorothioate, o phosphodiester), T or U not given here
Cyno Primary Hepatocyte Editing % 100 [1]: 0.75%
Cyno Primary Hepatocyte Editing % 500 [1]: 5.39%
Cyno Primary Hepatocyte Editing % 2500 [1]: 34.28%
Human Primary Hepatocyte Editing % 100 [2]: 0.47%
Human Primary Hepatocyte Editing % 500 [2]: 6.85%
Human Primary Hepatocyte Editing % 2500 [2]: 30.41%

B9: GA233: PCSK9 gRNA; protospacer GCGGCTGTACCCACCCGCCA (SEQ ID NO: 227) (nucleic acid)
guide: GCGGCUGUACCCACCCGCCAGUUUUAGAGCUAGAAAUAGCAAGUUAAAAUAAGGCUAGUCCGUUAUCAACUUGAAAAAGUGGCACCGAGUCGGUGCUUUU
modifications: sugars from the 5' end m3 r94 m3, linkages s3 o93 s3 (s phosphorothioate, o phosphodiester), T or U not given here
Cyno Primary Hepatocyte Editing % 100 [1]: 2.38%
Cyno Primary Hepatocyte Editing % 500 [1]: 10.84%
Cyno Primary Hepatocyte Editing % 2500 [1]: 37.8%
Human Primary Hepatocyte Editing % 100 [2]: 3.08%
Human Primary Hepatocyte Editing % 500 [2]: 5.39%
Human Primary Hepatocyte Editing % 2500 [2]: 19.97%

B10: GA228: PCSK9 gRNA; protospacer CGGCTGTACCCACCCGCCAG (SEQ ID NO: 222) (nucleic acid)
guide: CGGCUGUACCCACCCGCCAGGUUUUAGAGCUAGAAAUAGCAAGUUAAAAUAAGGCUAGUCCGUUAUCAACUUGAAAAAGUGGCACCGAGUCGGUGCUUUU
modifications: sugars from the 5' end m3 r94 m3, linkages s3 o93 s3 (s phosphorothioate, o phosphodiester), T or U not given here
Cyno Primary Hepatocyte Editing % 100 [1]: 1.95%
Cyno Primary Hepatocyte Editing % 500 [1]: 7.89%
Cyno Primary Hepatocyte Editing % 2500 [1]: 31.36%
Human Primary Hepatocyte Editing % 100 [2]: 5.9%
Human Primary Hepatocyte Editing % 500 [2]: 10.96%
Human Primary Hepatocyte Editing % 2500 [2]: 37.1%

B11: GA227: PCSK9 gRNA; protospacer GTCCCGGAAGTTGCCGGCAG (SEQ ID NO: 221) (nucleic acid)
guide: GUCCCGGAAGUUGCCGGCAGGUUUUAGAGCUAGAAAUAGCAAGUUAAAAUAAGGCUAGUCCGUUAUCAACUUGAAAAAGUGGCACCGAGUCGGUGCUUUU
modifications: sugars from the 5' end m3 r94 m3, linkages s3 o93 s3 (s phosphorothioate, o phosphodiester), T or U not given here
Cyno Primary Hepatocyte Editing % 100 [1]: 0.56%
Cyno Primary Hepatocyte Editing % 500 [1]: 4.58%
Cyno Primary Hepatocyte Editing % 2500 [1]: 32.41%
Human Primary Hepatocyte Editing % 100 [2]: 0.02%
Human Primary Hepatocyte Editing % 500 [2]: 8.29%
Human Primary Hepatocyte Editing % 2500 [2]: 32.09%
